The target in this assay is plasma purified human complement protein C3 (human) (UniProt P01024). The experiment in a line: cell-based or functional assay.

Where a chain is given by its changes, count along the chain named. Names and notes keep the numbering of the source.

Sequence of plasma purified human complement protein C3 (human) (P01024 23-667, chain 1 of 2): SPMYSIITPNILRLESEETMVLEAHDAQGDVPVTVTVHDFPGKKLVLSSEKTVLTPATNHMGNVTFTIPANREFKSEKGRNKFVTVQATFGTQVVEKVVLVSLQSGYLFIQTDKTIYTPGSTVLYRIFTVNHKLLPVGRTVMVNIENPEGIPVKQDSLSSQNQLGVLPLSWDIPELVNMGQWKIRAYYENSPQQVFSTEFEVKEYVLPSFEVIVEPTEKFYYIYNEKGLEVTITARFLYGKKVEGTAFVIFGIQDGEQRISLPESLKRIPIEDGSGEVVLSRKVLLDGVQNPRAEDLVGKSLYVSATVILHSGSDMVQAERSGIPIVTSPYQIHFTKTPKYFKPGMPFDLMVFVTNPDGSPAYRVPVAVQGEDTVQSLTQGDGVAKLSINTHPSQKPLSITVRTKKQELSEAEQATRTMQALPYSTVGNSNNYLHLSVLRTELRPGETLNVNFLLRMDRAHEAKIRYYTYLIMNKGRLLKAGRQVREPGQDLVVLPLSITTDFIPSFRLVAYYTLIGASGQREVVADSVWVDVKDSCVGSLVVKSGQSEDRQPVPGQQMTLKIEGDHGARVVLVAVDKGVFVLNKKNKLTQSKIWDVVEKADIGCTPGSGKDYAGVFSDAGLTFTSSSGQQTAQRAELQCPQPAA
Sequence of plasma purified human complement protein C3 (human) (P01024 672-1663, chain 2 of 2): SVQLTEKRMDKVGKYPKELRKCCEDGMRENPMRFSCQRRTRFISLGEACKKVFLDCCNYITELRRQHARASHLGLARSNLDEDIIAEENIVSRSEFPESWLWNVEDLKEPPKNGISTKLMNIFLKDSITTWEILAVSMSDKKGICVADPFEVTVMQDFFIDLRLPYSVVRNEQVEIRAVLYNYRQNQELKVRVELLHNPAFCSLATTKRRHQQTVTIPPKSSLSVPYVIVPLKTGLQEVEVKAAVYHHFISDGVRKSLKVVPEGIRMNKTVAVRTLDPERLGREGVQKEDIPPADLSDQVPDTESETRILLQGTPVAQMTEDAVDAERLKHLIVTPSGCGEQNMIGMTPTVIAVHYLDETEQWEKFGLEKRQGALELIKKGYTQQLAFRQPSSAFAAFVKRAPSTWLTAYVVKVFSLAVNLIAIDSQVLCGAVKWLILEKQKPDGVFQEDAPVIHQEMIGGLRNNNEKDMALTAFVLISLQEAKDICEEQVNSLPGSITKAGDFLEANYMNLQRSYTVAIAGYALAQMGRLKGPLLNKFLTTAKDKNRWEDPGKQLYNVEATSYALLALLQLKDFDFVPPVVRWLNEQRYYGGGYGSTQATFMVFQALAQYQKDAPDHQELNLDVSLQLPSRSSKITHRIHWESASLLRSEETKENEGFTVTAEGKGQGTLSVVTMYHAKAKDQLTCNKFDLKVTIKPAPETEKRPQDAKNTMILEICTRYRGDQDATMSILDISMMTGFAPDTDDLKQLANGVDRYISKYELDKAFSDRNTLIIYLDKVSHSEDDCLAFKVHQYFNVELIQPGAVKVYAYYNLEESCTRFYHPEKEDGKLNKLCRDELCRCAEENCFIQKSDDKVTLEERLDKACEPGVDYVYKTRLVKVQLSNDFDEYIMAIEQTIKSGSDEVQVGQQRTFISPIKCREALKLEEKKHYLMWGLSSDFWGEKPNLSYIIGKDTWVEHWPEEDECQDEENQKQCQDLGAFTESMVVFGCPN

B1: MTSP-1 L33M/Q38H/I41A/D60bA/ins97aV/F97D/T98P/F99L/C122S/Q192G/D217N (enzyme)
chain: VVGGTDADEGEWPWQVSMHALGHGHACGASLISPNWLVSAAHCYIDARGFRYSDPTQWTAFLGLHDQSQRSAPGVQERRLKRIISHPFFNDDVPLDYDIALLELEKPAEYSSMVRPISLPDASHVFPAGKAIWVTGWGHTQYGGTGALILQKGEIRVINQTTCENLLPQQITPRMMCVGFLSGGVDSCGGDSGGPLSSVEADGRIFQAGVVSWGNGCAQRNKPGVYTRLPLFRDWIKENTGV
On to B1, for which the EC50 of hC3 cleavage is 50 nM.

B2: MTSP-1 Q38E/I41S/D60bV/F60eK/Y60gW/ins97aE/F97T/T98G/F99L/C122S/G151H/Q175L/Q192D (enzyme)
chain: VVGGTDADEGEWPWQVSLHALGEGHSCGASLISPNWLVSAAHCYIDVRGKRWSDPTQWTAFLGLHDQSQRSAPGVQERRLKRIISHPFFNDTEGLDYDIALLELEKPAEYSSMVRPISLPDASHVFPAGKAIWVTGWGHTQYGGTHALILQKGEIRVINQTTCENLLPQLITPRMMCVGFLSGGVDSCDGDSGGPLSSVEADGRIFQAGVVSWGDGCAQRNKPGVYTRLPLFRDWIKENTGV
With B2, the EC50 of hC3 cleavage turned out to be 22.9 nM.

B3: MTSP-1 Q38H/I41S/P49Q/D60bS/F93L/ins97aV/F97D/T98P/F99L/C122S/Q192G/D217Q (enzyme)
chain: B1 chain with M18L, A26S, P34Q, A47S, F88L, N215Q
For the molecule B3, the EC50 of hC3 cleavage came to 48.3 nM.

B4: MTSP-1 Q38H/I41S/D60bT/F60eS/Y60gW/D96K/ins97aA/F97D/T98P/F99L/C122S/G151H/Q175L/Q192D (enzyme)
chain: B2 chain with E23H, V47T, K50S, D91K, T92D, E93A, G94P
On to B4, for which the EC50 of hC3 cleavage worked out at 7.09 nM.

B5: MTSP-1 I41S/D60bT/F93L/ins97aV/F97D/T98P/F99L/C122S/Q192G/D217H (enzyme)
chain: B1 chain with M18L, H23Q, A26S, A47T, F88L, N215H
With B5, the EC50 of hC3 cleavage came to 27.7 nM.

B6: MTSP-1 I41S/D60bH/ins97aV/F97D/T98P/F99L/C122S/I136V/Q192G/D217N (enzyme)
chain: B1 chain with M18L, H23Q, A26S, A47H, I132V
B6 came in with an EC50 of hC3 cleavage of 20.6 nM.

B7: MTSP-1 Q38H/I41S/D60bT/F60eS/Y60gW/ins97aV/F97D/T98P/F99L/C122S/G151N/Q175L/Q192E (enzyme)
chain: B2 chain with E23H, V47T, K50S, T92D, E93V, G94P, H146N, D189E
In turn, B7 showed an EC50 of hC3 cleavage of 6.78 nM.

B8: MTSP-1 Q38H/I41A/D60bE/F60eH/Y60gW/ins97aE/F97T/T98G/F99L/C122S/G151H/Q175L/Q192D (enzyme)
chain: B2 chain with E23H, S26A, V47E, K50H
B8: the EC50 of hC3 cleavage was determined as 13.8 nM.

B9: MTSP-1 Q38H/I41S/D60bT/F93S/ins97aV/F97D/T98P/F99L/C122S/I136L/Q192G/D217A (enzyme)
chain: B1 chain with M18L, A26S, A47T, F88S, I132L, N215A
B9 registered an EC50 of hC3 cleavage of 37 nM.

B10: MTSP-1 Q38H/I41S/D60bA/Y60gG/ins97aV/F97D/T98P/F99L/C122S/H143T/G151N/Q175L/Q192A (enzyme)
chain: B1 chain with M18L, A26S, Y52G, H139T, G146N, Q170L, G189A, N215D
Molecule B10 displayed an EC50 of hC3 cleavage of 4.22 nM.

B11: MTSP-1 Q38H/I41S/D60bF/F60eT/ins97aV/F97D/T98P/F99L/C122S/H143Q/G151N/Q175L/Q192G (enzyme)
chain: B1 chain with M18L, A26S, A47F, F50T, H139Q, G146N, Q170L, N215D
The molecule B11 showed an EC50 of hC3 cleavage of 3.07 nM.

B12: MTSP-1 Q38H/I41S/D60bT/S90T/F97D/ins97aV/T98P/F99L/C122S/S127N/I136F/Q192G/D217Q (enzyme)
chain: B1 chain with M18L, A26S, A47T, S85T, S123N, I132F, N215Q
B12 registered an EC50 of hC3 cleavage of 21.2 nM.

B13: MTSP-1 Q38H/I41S/D60bS/ins97aV/F97D/T98P/F99L/M117L/C122S/I136T/Q192G/D217I (enzyme)
chain: B1 chain with M18L, A26S, A47S, M113L, I132T, N215I
In turn, B13 registered an EC50 of hC3 cleavage of 2.43 nM.

B14: MTSP-1 Q38H/I41A/D60bV/F60eR/Y60gW/ins97aE/F97T/T98G/F99L/C122S/G151H/Q175L/Q192D (enzyme)
chain: B2 chain with E23H, S26A, K50R
Turning to B14, the EC50 of hC3 cleavage came to 5.93 nM.

B15: MTSP-1 Q38H/I41S/D60bS/F60eQ/Y60gF/ins97aV/F97D/T98P/F99L/C122S/H143R/G151N/Q175L/Q192T (enzyme)
chain: B2 chain with E23H, V47S, K50Q, W52F, T92D, E93V, G94P, H139R, H146N, D189T
With B15, the EC50 of hC3 cleavage was determined as 12.9 nM.

B16: MTSP-1 I41T/D60bH/ins97aV/F97D/T98P/F99L/C122S/Q192G/D217I (enzyme)
chain: B1 chain with M18L, H23Q, A26T, A47H, N215I
As for B16, the EC50 of hC3 cleavage is 4.52 nM.

B17: MTSP-1 Q38E/I41A/D60bH/ins97aV/F97D/T98P/F99L/C122S/Q192G/Q209L/D217H (enzyme)
chain: B1 chain with M18L, H23E, A47H, Q207L, N215H
Consider B17, for which the EC50 of hC3 cleavage is 10.2 nM.

B18: MTSP-1 Q38H/I41S/D60bT/F60eT/Y60gW/ins97aV/F97D/T98P/F99L/C122S/G151H/Q175L/Q192V (enzyme)
chain: B2 chain with E23H, V47T, K50T, T92D, E93V, G94P, D189V
Turning to B18, the EC50 of hC3 cleavage was found to be 5.52 nM.

B19: MTSP-1 Q38H/I41S/D60bT/F60eS/Y60gW/D96Y/ins97aV/F97E/T98G/F99L/C122S/G151H/Q175L/Q192D (enzyme)
chain: B2 chain with E23H, V47T, K50S, D91Y, T92E, E93V
For B19, the EC50 of hC3 cleavage was 4.62 nM.

B20: MTSP-1 Q38K/I41T/D60bY/ins97aV/F97D/T98P/F99L/C122S/I136T/Q192G/F208V/D217R (enzyme)
chain: B1 chain with M18L, H23K, A26T, A47Y, I132T, F206V, N215R
B20 displayed an EC50 of hC3 cleavage of 19.5 nM.

B21: MTSP-1 Q38H/I41S/L52M/D60bH/D96V/ins97aV/F97D/T98P/F99L/C122S/T150A/Q192G/Q209L/D217T (enzyme)
chain: B1 chain with M18L, A26S, L37M, A47H, D91V, T145A, Q207L, N215T
As for B21, the EC50 of hC3 cleavage was 16.9 nM.

B22: MTSP-1 Q38H/I41S/D60bY/D96Y/ins97aV/F97D/T98P/F99L/L106M/C122S/I136M/Q192G/Q209L/D217T (enzyme)
chain: B1 chain with M18L, A26S, A47Y, D91Y, L102M, I132M, Q207L, N215T
As to B22, the EC50 of hC3 cleavage worked out at 1.97 nM.

B23: MTSP-1 Q38H/I41S/D60bT/F60eS/Y60gW/F97D/F99L/C122S/G151H/Q175L/Q192D (enzyme)
chain: VVGGTDADEGEWPWQVSLHALGHGHSCGASLISPNWLVSAAHCYIDTRGSRWSDPTQWTAFLGLHDQSQRSAPGVQERRLKRIISHPFFNDDTLDYDIALLELEKPAEYSSMVRPISLPDASHVFPAGKAIWVTGWGHTQYGGTHALILQKGEIRVINQTTCENLLPQLITPRMMCVGFLSGGVDSCDGDSGGPLSSVEADGRIFQAGVVSWGDGCAQRNKPGVYTRLPLFRDWIKENTGV
Regarding B23, the EC50 of hC3 cleavage came out at 5.53 nM.
